Measured values as given in IntAct's records for PubMed 16482218.

B1: Transcription factor Dp-2 (Mus musculus), Q64163-4 (parent)
chain: MIISTPQRIANSGSVLIGNPYTPAPAMVTQTHIAEAAGWVPSDRKRAREFIDSDFSESKRSKKGDKNGKGLRHFSMKVCEKVQRKGTTSYNEVADELVSEFTNSNNHLAADSAYDQENIRRRVYDALNVLMAMNIISSLPTGKKRNQVDCNSAQECQNLEIEKQRRIERIKQKRAQLQELLLQQIAFKNLVQRNRQNEQQNQGPPAVNSTIQLPFIIINTSRKTVIDCSISSDKFEYLFNFDNTFEIHDDIEVLKRMGMSFGLESGKCSLEDLKIARSLVPKALEGYITDISTGPSWLNQGLLLNSTQSVSNLDPTTGATVPQSSVNQGLCLDAEVALATGQLPASNSHQSSSAASHFSESRGETPCSFNDEDEEDEEEDPSSPE

Variants of: B1
Details: with 1433e_mouse Ywhae

Effect of a mutation on the interaction, disrupting interaction:
MIISTPQRIANSGSVLIGNPYTPAPAMVTQTHIAEAAGWVPADRKRAREFIDSDFSESKRSKKGDKNGKGLRHFSMKVCEKVQRKGTTSYNEVADELVSEFTNSNNHLAADSAYDQENIRRRVYDALNVLMAMNIISSLPTGKKRNQVDCNSAQECQNLEIEKQRRIERIKQKRAQLQELLLQQIAFKNLVQRNRQNEQQNQGPPAVNSTIQLPFIIINTSRKTVIDCSISSDKFEYLFNFDNTFEIHDDIEVLKRMGMSFGLESGKCSLEDLKIARSLVPKALEGYITDISTGPSWLNQGLLLNSTQSVSNLDPTTGATVPQSSVNQGLCLDAEVALATGQLPASNSHQSSSAASHFSESRGETPCSFNDEDEEDEEEDPSSPE [S42A]
MIISTPQRIANSGSVLIGNPYTPAPAMVTQTHIAEAAGWVPSDRKRAREFIDADFSESKRSKKGDKNGKGLRHFSMKVCEKVQRKGTTSYNEVADELVSEFTNSNNHLAADSAYDQENIRRRVYDALNVLMAMNIISSLPTGKKRNQVDCNSAQECQNLEIEKQRRIERIKQKRAQLQELLLQQIAFKNLVQRNRQNEQQNQGPPAVNSTIQLPFIIINTSRKTVIDCSISSDKFEYLFNFDNTFEIHDDIEVLKRMGMSFGLESGKCSLEDLKIARSLVPKALEGYITDISTGPSWLNQGLLLNSTQSVSNLDPTTGATVPQSSVNQGLCLDAEVALATGQLPASNSHQSSSAASHFSESRGETPCSFNDEDEEDEEEDPSSPE [S53A]
MIISTPQRIANSGSVLIGNPYTPAPAMVTQTHIAEAAGWVPSDRKRAREFIDSDFAESKRSKKGDKNGKGLRHFSMKVCEKVQRKGTTSYNEVADELVSEFTNSNNHLAADSAYDQENIRRRVYDALNVLMAMNIISSLPTGKKRNQVDCNSAQECQNLEIEKQRRIERIKQKRAQLQELLLQQIAFKNLVQRNRQNEQQNQGPPAVNSTIQLPFIIINTSRKTVIDCSISSDKFEYLFNFDNTFEIHDDIEVLKRMGMSFGLESGKCSLEDLKIARSLVPKALEGYITDISTGPSWLNQGLLLNSTQSVSNLDPTTGATVPQSSVNQGLCLDAEVALATGQLPASNSHQSSSAASHFSESRGETPCSFNDEDEEDEEEDPSSPE [S56A]
MIISTPQRIANSGSVLIGNPYTPAPAMVTQTHIAEAAGWVPSDRKRAREFIDSDFSEAKRSKKGDKNGKGLRHFSMKVCEKVQRKGTTSYNEVADELVSEFTNSNNHLAADSAYDQENIRRRVYDALNVLMAMNIISSLPTGKKRNQVDCNSAQECQNLEIEKQRRIERIKQKRAQLQELLLQQIAFKNLVQRNRQNEQQNQGPPAVNSTIQLPFIIINTSRKTVIDCSISSDKFEYLFNFDNTFEIHDDIEVLKRMGMSFGLESGKCSLEDLKIARSLVPKALEGYITDISTGPSWLNQGLLLNSTQSVSNLDPTTGATVPQSSVNQGLCLDAEVALATGQLPASNSHQSSSAASHFSESRGETPCSFNDEDEEDEEEDPSSPE [S58A]
MIISTPQRIANSGSVLIGNPYTPAPAMVTQTHIAEAAGWVPSDRKRAREFIDSDFSESKRAKKGDKNGKGLRHFSMKVCEKVQRKGTTSYNEVADELVSEFTNSNNHLAADSAYDQENIRRRVYDALNVLMAMNIISSLPTGKKRNQVDCNSAQECQNLEIEKQRRIERIKQKRAQLQELLLQQIAFKNLVQRNRQNEQQNQGPPAVNSTIQLPFIIINTSRKTVIDCSISSDKFEYLFNFDNTFEIHDDIEVLKRMGMSFGLESGKCSLEDLKIARSLVPKALEGYITDISTGPSWLNQGLLLNSTQSVSNLDPTTGATVPQSSVNQGLCLDAEVALATGQLPASNSHQSSSAASHFSESRGETPCSFNDEDEEDEEEDPSSPE [S61A]
